Results: patent US20110177071A1 (PERSEID THERAPEUTICS, published 2011)
Numbering of substitutions follows the chain as printed. Blank lines part the entries; values can stand above or below the binder they belong to.

How the values were obtained:
[1] = target: T1, human CD80-murine Ig fusion protein (human); experiment: SPR Biacore, hCD80-mIg captured
T1 construct: Bought (Ancell #510-820); also called hCD80-mIg; human CD80-murine IgG
T1 chain: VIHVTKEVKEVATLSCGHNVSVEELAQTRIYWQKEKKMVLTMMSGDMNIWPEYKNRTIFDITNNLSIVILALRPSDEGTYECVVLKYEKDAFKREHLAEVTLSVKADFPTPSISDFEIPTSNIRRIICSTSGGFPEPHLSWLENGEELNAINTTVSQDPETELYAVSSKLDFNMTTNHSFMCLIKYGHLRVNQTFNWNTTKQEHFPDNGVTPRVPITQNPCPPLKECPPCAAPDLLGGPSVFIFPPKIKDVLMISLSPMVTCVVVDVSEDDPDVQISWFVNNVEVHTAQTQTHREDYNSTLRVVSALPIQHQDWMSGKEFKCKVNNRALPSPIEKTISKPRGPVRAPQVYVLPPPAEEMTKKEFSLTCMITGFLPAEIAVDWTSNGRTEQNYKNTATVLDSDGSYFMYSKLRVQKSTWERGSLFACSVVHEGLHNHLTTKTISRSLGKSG

[2] = target: T2, human CD86-murine Ig fusion protein (human); experiment: SPR Biacore, hCD86-mIg captured; upper end of the KD bin (2x Orencia)
T2 construct: Bought (Ancell #509-820); also called hCD86-mIg
T2 chain: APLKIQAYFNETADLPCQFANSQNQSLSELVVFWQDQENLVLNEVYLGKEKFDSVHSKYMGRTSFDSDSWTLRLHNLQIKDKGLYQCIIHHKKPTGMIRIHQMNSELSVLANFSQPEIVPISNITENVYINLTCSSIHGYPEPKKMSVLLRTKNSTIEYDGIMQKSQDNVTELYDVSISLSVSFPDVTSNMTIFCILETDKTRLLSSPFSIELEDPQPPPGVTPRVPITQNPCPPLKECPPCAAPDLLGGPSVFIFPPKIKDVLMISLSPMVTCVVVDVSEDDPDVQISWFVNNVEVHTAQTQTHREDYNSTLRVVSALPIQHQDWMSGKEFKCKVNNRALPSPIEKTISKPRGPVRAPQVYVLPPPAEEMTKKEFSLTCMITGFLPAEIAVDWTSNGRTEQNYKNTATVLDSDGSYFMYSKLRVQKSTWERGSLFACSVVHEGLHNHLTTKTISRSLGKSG
Experimental: (§1) All Biacore™ analyses were performed on a Biacore™ 2000 system (GE Healthcare) at room temperature (RT, 25° C.). HBS-EP buffer (10 mM HEPES (pH 7.4), 150 mM NaCl, 3 mM EDTA, 0.005% surfactant P20) was used as the flow buffer for all experiments.
(§2) Rabbit anti-mouse IgG antibody (GE Healthcare, #BR-1005-14) was immobilized on CM5 sensor chips (GE Healthcare, #BR-1000-14) according to the manufacturer's protocol. Antibody was diluted to 30 μg/ml in immobilization buffer (10 mM sodium acetate, pH 5.0 (BR-1003-51)). At a flow rate of 5 μl/minute, sensor chip CM5 was activated with a 35 μl injection of a mixture of 1-Ethyl-3-[3-dimethylaminopropyl]carbodiimide hydrochloride (EDC) and N-hydroxysuccinimide (NHS) (made by mixing equal volumes of 11.5 mg/ml EDC and 75 mg/ml NHS) (GE Healthcare, #BR-1000-50), followed by a 35 μl injection of undiluted antibody. Un-reacted sites were quenched with 35 μl of 1M ethanolamine-HCL, pH 8.5 (GE Healthcare, #BR-1000-50). […] CTLA-4 ligands human CD80-murine Ig (hCD80-mIg) (Ancell, #510-820) or human CD86-murine Ig (hCD86-mIg) (Ancell, #509-820) were bound to antibody-coated sensor chips by injection of 10 μl or 16 μl, respectively, ligand solution (2 μg/ml protein in HBS-EP buffer [10 mM HEPES pH 7.4, 150 mM NaCl, 3 mM EDTA, 0.005% (v/v) surfactant P-20, GE Healthcare, #BR-1001-88]) at a flow rate of 10 μl/min.

[3] = target: T2, human CD86-murine Ig fusion protein; experiment: SPR Biacore, hCD86-mIg captured; lower end of the KD bin (10x Orencia)
Experimental: as §1, §2

[4] = target: T3, full-length human CD86 on HEK293 cells (human, UniProt P42081 24-329); experiment: cell-based or functional assay
T3 sequence: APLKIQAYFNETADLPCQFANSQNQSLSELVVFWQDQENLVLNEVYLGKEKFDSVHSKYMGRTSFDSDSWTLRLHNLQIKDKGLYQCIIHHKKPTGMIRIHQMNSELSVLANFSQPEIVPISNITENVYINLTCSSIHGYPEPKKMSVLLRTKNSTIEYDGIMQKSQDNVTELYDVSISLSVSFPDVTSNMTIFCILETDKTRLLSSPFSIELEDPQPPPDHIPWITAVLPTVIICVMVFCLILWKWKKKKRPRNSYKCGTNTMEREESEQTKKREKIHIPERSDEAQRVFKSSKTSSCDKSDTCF

[5] = target: T2, human CD86-murine Ig fusion protein; experiment: SPR Biacore, hCD86-mIg captured
[6] = target: T4, monomeric hCD86 ECD (papain-digested hCD86-mIg) (human, UniProt P42081 24-243); experiment: SPR Biacore, fusion protein captured, monomeric hCD86 ECD in flow
T4 construct: also called monomeric hCD86-mIg ligand; monomeric CD86 ECD
T4 chain: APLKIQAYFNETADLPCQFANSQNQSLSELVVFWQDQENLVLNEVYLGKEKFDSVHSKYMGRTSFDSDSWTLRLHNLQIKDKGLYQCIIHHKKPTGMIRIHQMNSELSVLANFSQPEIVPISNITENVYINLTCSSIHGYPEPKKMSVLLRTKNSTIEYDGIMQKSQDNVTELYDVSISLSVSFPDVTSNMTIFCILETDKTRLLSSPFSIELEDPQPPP
Experimental: Regeneration between cycles was performed by 3 min incubation with 10 mM glycine buffer (pH 1.7) at 30 μl/min.
For kinetic analysis, data from monomeric binding assays were selected as described above except that association data selection began and ended 5 s from the injection start and stop times, and dissociation data selection started 5 s after the injection stop time, and typically included 1-60 s of the dissociation period. Such data were also analyzed for steady state equilibrium affinities using the BIAevaluation software. Steady state binding levels for each concentration (Responseeq (“Req”) values) were averaged over 5-20 s range near the end of the sample injection using the BIAevaluation “General fit: average” function.

Binding Avidity (Relative to Orencia) [1]: > 2 fold
Kd [1]: < 0.439 nM
Kd [2]: ≤ 2.65 nM
Kd [3]: ≥ 0.523 nM
B1: D1-IgG2 (Fc fusion)
chain: MHVAQPAVVLASSRGIASFVCEYESPHKATEIRVTVLRQANSQVTEVCAMTYMKGDELTFLDDPFCTGTFSGNQVNLTIQGLRAADTGLYICKVELMYPPPYYLGIGNGTQIYVIDPEPCPDSDERKCCVECPPCPAPPVAGPSVFLFPPKPKDTLMISRTPEVTCVVVDVSHEDPEVQFNWYVDGVEVHNAKTKPREEQFNSTFRVVSVLTVVHQDWLNGKEYKCKVSNKGLPAPIEKTISKTKGQPREPQVYTLPPSREEMTKNQVSLTCLVKGFYPSDIAVEWESNGQPENNYKTTPPMLDSDGSFFLYSKLTVDKSRWQQGNVFSCSVMHEALHNHYTQKSLSLSPG

Mean IC50 (nM), CD4+ T cell proliferation [4]: 0.03 nM
Binding Avidity (Relative to Orencia) [5]: > 40 fold
Kd [5]: < 0.131 nM
Binding Avidity (Relative to Orencia) [1]: > 2 fold
Kd [1]: < 0.439 nM
Binding Affinity (Relative to LEA29Y-Ig) [6]: > 5 fold
Kd [6]: < 336 nM
B2: D3-31-IgG2 (Fc fusion)
chain: B1 chain with H27G, T30N, N41D, G55E, F65S

Mean IC50 (nM), CD4+ T cell proliferation [4]: 0.02 nM
Binding Avidity (Relative to Orencia) [5]: > 40 fold
Kd [5]: < 0.131 nM
Binding Avidity (Relative to Orencia) [1]: > 2 fold
Kd [1]: < 0.439 nM
Binding Affinity (Relative to LEA29Y-Ig) [6]: > 5 fold
Kd [6]: < 336 nM
B3: D3-53-IgG2 (Fc fusion)
chain: B1 chain with H27G, T30N, N41G, F65S, L104E

Mean IC50 (nM), CD4+ T cell proliferation [4]: 0.04 nM
Binding Avidity (Relative to Orencia) [5]: > 40 fold
Kd [5]: < 0.131 nM
Kd [1]: 0.439 to 1.75 nM
Binding Affinity (Relative to LEA29Y-Ig) [6]: > 5 fold
Kd [6]: < 336 nM
B4: D3-IgG2 (Fc fusion)
chain: B1 chain with H27G, T30N, N41G, F65S, I106F
notes: also called clone D3
